Test results as given in the supplement of paper PMC12458215.
± gives the uncertainty stated by the source.

Tested on: HEK293T
Experiment: plasma membrane surface immunostaining intensity (anti-HA, deep receptor scanning) (arbitrary fluorescence units); higher = higher plasma membrane expression

| Sequence | plasma membrane surface immunostaining intensity (GPCR class: A) | plasma membrane surface immunostaining intensity (GPCR class: A (Olfactory)) | also measured |
| --- | --- | --- | --- |
| METTMGFMDDNATNTSTSFLSVLNPHGAHATSFPFNFSYSDYDMPLDEDEDVTNSRTFFAAKIVIGMALVGIMLVCGIGNFIFIAALVRYKKLRNLTNLLIANLAISDFLVAIVCCPFEMDYYVVRQLSWEHGHVLCTSVNYLRTVSLYVSTNALLAIAIDRYLAIVHPLRPRMKCQTATGLIALVWTVSILIAIPSAYFTTETVLVIVKSQEKIFCGQIWPVDQQLYYKSYFLFIFGIEFVGPVVTMTLCYARISRELWFKAVPGFQTEQIRKRLRCRRKTVLVLMCILTAYVLCWAPFYGFTIVRDFFPTVFVKEKHYLTAFYIVECIAMSNSMINTLCFVTVKNDTVKYFKKIMLLHWKASYNGGKSSADLDLKTIGMPATEEVDCIRLK [PROKR1] | 2260 ± 380 |  |  |
| MEWGYLLEVTSLLAALALLQRSSGAAAASAKELACQEITVPLCKGIGYNYTYMPNQFNHDTQDEAGLEVHQFWPLVEIQCSPDLKFFLCSMYTPICLEDYKKPLPPCRSVCERAKAGCAPLMRQYGFAWPDRMRCDRLPEQGNPDTLCMDYNRTDLTTAAPSPPRRLPPPPPGEQPPSGSGHGRPPGARPPHRGGGRGGGGGDAAAPPARGGGGGGKARPPGGGAAPCEPGCQCRAPMVSVSSERHPLYNRVKTGQIANCALPCHNPFFSQDERAFTVFWIGLWSVLCFVSTFATVSTFLIDMERFKYPERPIIFLSACYLFVSVGYLVRLVAGHEKVACSGGAPGAGGAGGAGGAAAGAGAAGAGAGGPGGRGEYEELGAVEQHVRYETTGPALCTVVFLLVYFFGMASSIWWVILSLTWFLAAGMKWGNEAIAGYSQYFHLAAWLVPSVKSIAVLALSSVDGDPVAGICYVGNQSLDNLRGFVLAPLVIYLFIGTMFLLAGFVSLFRIRSVIKQQDGPTKTHKLEKLMIRLGLFTVLYTVPAAVVVACLFYEQHNRPRWEATHNCPCLRDLQPDQARRPDYAVFMLKYFMCLVVGITSGVWVWSGKTLESWRSLCTRCCWASKGAAVGGGAGATAAGGGGGPGGGGGGGPGGGGGPGGGGGSLYSDVSTGLTWRSGTASSVSYPKQMPLSQV [FZD8] |  |  | plasma membrane surface immunostaining intensity (GPCR class: F): 225 ± 23 |
| MFGLFGLWRTFDSVVFYLTLIVGLGGPVGNGLVLWNLGFRIKKGPFSIYLLHLAAADFLFLSCRVGFSVAQAALGAQDTLYFVLTFLWFAVGLWLLAAFSVERCLSDLFPACYQGCRPRHASAVLCALVWTPTLPAVPLPANACGLLRNSACPLVCPRYHVASVTWFLVLARVAWTAGVVLFVWVTCCSTRPRPRLYGIVLGALLLLFFCGLPSVFYWSLQPLLNFLLPVFSPLATLLACVNSSSKPLIYSGLGRQPGKREPLRSVLRRALGEGAELGARGQSLPMGLL [MRGPRG] | 115 ± 15 |  |  |
| MFLYLCFIFQRTCSEEMEEENATLLTEFVLTGFLHQPDCKIPLFLAFLVIYLITIMGNLGLIVLIWKDPHLHIPMYLFLGSLAFVDASLSSTVTPKMLINFLAKSKMISLSECMVQFFSLVTTVTTECFLLATMAYDRYVAICKALLYPVIMTNELCIQLLVLSFIGGLLHALIHEAFSFRLTFCNSNIIQHFYCDIIPLLKISCTDSSINFLMVFIFAGSVQVFTIGTILISYTIILFTILEKKSIKGIRKAVSTCGAHLLSVSLYYGPLTFKYLGSASPQADDQDMMESLFYTVIVPLLNPMIYSLRNKQVIASFTKMFKSNV [OR5H6] |  | 123 ± 24 |  |
| MFRQEQPLAEGSFAPMGSLQPDAGNASWNGTEAPGGGARATPYSLQVTLTLVCLAGLLMLLTVFGNVLVIIAVFTSRALKAPQNLFLVSLASADILVATLVIPFSLANEVMGYWYFGKAWCEIYLALDVLFCTSSIVHLCAISLDRYWSITQAIEYNLKRTPRRIKAIIITVWVISAVISFPPLISIEKKGGGGGPQPAEPRCEINDQKWYVISSCIGSFFAPCLIMILVYVRIYQIAKRRTRVPPSRRGPDAVAAPPGGTERRPNGLGPERSAGPGGAEAEPLPTQLNGAPGEPAPAGPRDTDALDLEESSSSDHAERPPGPRRPERGPRGKGKARASQVKPGDSLPRRGPGATGIGTPAAGPGEERVGAAKASRWRGRQNREKRFTFVLAVVIGVFVVCWFPFFFTYTLTAVGCSVPRTLFKFFFWFGYCNSSLNPVIYTIFNHDFRRAFKKILCRGDRKRIV [ADRA2A] | 2600 ± 560 |  |  |
| MFSPWKISMFLSVREDSVPTTASFSADMLNVTLQGPTLNGTFAQSKCPQVEWLGWLNTIQPPFLWVLFVLATLENIFVLSVFCLHKSSCTVAEIYLGNLAAADLILACGLPFWAITISNNFDWLFGETLCRVVNAIISMNLYSSICFLMLVSIDRYLALVKTMSMGRMRGVRWAKLYSLVIWGCTLLLSSPMLVFRTMKEYSDEGHNVTACVISYPSLIWEVFTNMLLNVVGFLLPLSVITFCTMQIMQVLRNNEMQKFKEIQTERRATVLVLVVLLLFIICWLPFQISTFLDTLHRLGILSSCQDERIIDVITQIASFMAYSNSCLNPLVYVIVGKRFRKKSWEVYQGVCQKGGCRSEPIQMENSMGTLRTSISVERQIHKLQDWAGSRQ [BDKRB2] | 664 ± 47 |  |  |
| MGDNITSIREFLLLGFPVGPRIQMLLFGLFSLFYVFTLLGNGTILGLISLDSRLHAPMYFFLSHLAVVDIAYACNTVPRMLVNLLHPAKPISFAGRMMQTFLFSTFAVTECLLLVVMSYDLYVAICHPLRYLAIMTWRVCITLAVTSWTTGVLLSLIHLVLLLPLPFCRPQKIYHFFCEILAVLKLACADTHINENMVLAGAISGLVGPLSTIVVSYMCILCAILQIQSREVQRKAFRTCFSHLCVIGLVYGTAIIMYVGPRYGNPKEQKKYLLLFHSLFNPMLNPLICSLRNSEVKNTLKRVLGVERAL [OR2A4] |  | 123 ± 3.7 |  |
| MGDNITSITEFLLLGFPVGPRIQMLLFGLFSLFYVFTLLGNGTILGLISLDSRLHAPMYFFLSHLAVVDIAYACNTVPRMLVNLLHPAKPISFAGRMMQTFLFSTFAVTECLLLVVMSYDLYVAICHPLRYLAIMTWRVCITLAVTSWTTGVLLSLIHLVLLLPLPFCRPQKIYHFFCEILAVLKLACADTHINENMVLAGAISGLVGPLSTIVVSYMCILCAILQIQSREVQRKAFCTCFSHLCVIGLFYGTAIIMYVGPRYGNPKEQKKYLLLFHSLFNPMLNPLICSLRNSEVKNTLKRVLGVERAL [OR2A7] |  | 117 ± 27 |  |
| MGDWNNSDAVEPIFILRGFPGLEYVHSWLSILFCLAYLVAFMGNVTILSVIWIESSLHQPMYYFISILAVNDLGMSLSTLPTMLAVLWLDAPEIQASACYAQLFFIHTFTFLESSVLLAMAFDRFVAICHPLHYPTILTNSVIGKIGLACLLRSLGVVLPTPLLLRHYHYCHGNALSHAFCLHQDVLRLSCTDARTNSIYGLCVVIATLGVDSIFILLSYVLILNTVLDIASREEQLKALNTCVSHICVVLIFFVPVIGVSMVHRFGKHLSPIVHILMADIYLLLPPVLNPIVYSVRTKQIRLGILHKFVLRRRF [OR51L1] |  | 274 ± 150 |  |
| MGENQTMVTEFLLLGFLLGPRIQMLLFGLFSLFYIFTLLGNGAILGLISLDSRLHTPMYFFLSHLAVVDIAYTRNTVPQMLANLLHPAKPISFAGCMTQTFLCLSFGHSECLLLVLMSYDRYVAICHPLRYSVIMTWRVCITLAVTSWTCGSLLALAHVVLILRLPFSGPHEINHFFCEILSVLRLACADTWLNQVVIFAACVFFLVGPPSLVLVSYSHILAAILRIQSGEGRRKAFSTCSSHLCVVGLFFGSAIIMYMAPKSRHPEEQQKVFFLFYSFFNPTLNPLIYSLRNGEVKGALRRALGKESHS [OR2A1] |  | 106 ± 11 |  |
| MGFLSPMHPCRPPTQRRMAAGNHSTVTEFILKGLTKRADLQLPLFLLFLGIYLVTIVGNLGMITLICLNSQLHTPMYYFLSNLSLMDLCYSSVITPKMLVNFVSEKNIISYAGCMSQLYFFLVFVIAECYMLTVMAYDRYVAICHPLLYNIIMSHHTCLLLVAVVYAIGLIGSTIETGLMLKLPYCEHLISHYFCDILPLMKLSCSSTYDVEMTVFFSAGFNIIVTSLTVLVSYTFILSSILGISTTEGRSKAFSTCSSHLAAVGMFYGSTAFMYLKPSTISSLTQENVASVFYTTVIPMLNPLIYSLRNKEVKAAVQKTLRGKLF [OR8A1] |  | 191 ± 82 |  |
| MGGRVFLAFCVWLTLPGAETQDSRGCARWCPQNSSCVNATACRCNPGFSSFSEIITTPTETCDDINECATPSKVSCGKFSDCWNTEGSYDCVCSPGYEPVSGAKTFKNESENTCQDVDECQQNPRLCKSYGTCVNTLGSYTCQCLPGFKFIPEDPKVCTDVNECTSGQNPCHSSTHCLNNVGSYQCRCRPGWQPIPGSPNGPNNTVCEDVDECSSGQHQCDSSTVCFNTVGSYSCRCRPGWKPRHGIPNNQKDTVCEDMTFSTWTPPPGVHSQTLSRFFDKVQDLGRDSKTSSAEVTIQNVIKLVDELMEAPGDVEALAPPVRHLIATQLLSNLEDIMRILAKSLPKGPFTYISPSNTELTLMIQERGDKNVTMGQSSARMKLNWAVAAGAEDPGPAVAGILSIQNMTTLLANASLNLHSKKQAELEEIYESSIRGVQLRRLSAVNSIFLSHNNTKELNSPILFAFSHLESSDGEAGRDPPAKDVMPGPRQELLCAFWKSDSDRGGHWATEGCQVLGSKNGSTTCQCSHLSSFAILMAHYDVEDWKLTLITRVGLALSLFCLLLCILTFLLVRPIQGSRTTIHLHLCICLFVGSTIFLAGIENEGGQVGLRCRLVAGLLHYCFLAAFCWMSLEGLELYFLVVRVFQGQGLSTRWLCLIGYGVPLLIVGVSAAIYSKGYGRPRYCWLDFEQGFLWSFLGPVTFIILCNAVIFVTTVWKLTQKFSEINPDMKKLKKARALTITAIAQLFLLGCTWVFGLFIFDDRSLVLTYVFTILNCLQGAFLYLLHCLLNKKVREEYRKWACLVAGGSKYSEFTSTTSGTGHNQTRALRASESGI [ADGRE5] |  |  | plasma membrane surface immunostaining intensity (GPCR class: B): 6420 ± 110 |
| MGGRVFLVFLAFCVWLTLPGAETQDSRGCARWCPQDSSCVNATACRCNPGFSSFSEIITTPMETCDDINECATLSKVSCGKFSDCWNTEGSYDCVCSPGYEPVSGAKTFKNESENTCQDVDECQQNPRLCKSYGTCVNTLGSYTCQCLPGFKLKPEDPKLCTDVNECTSGQNPCHSSTHCLNNVGSYQCRCRPGWQPIPGSPNGPNNTVCEDVDECSSGQHQCDSSTVCFNTVGSYSCRCRPGWKPRHGIPNNQKDTVCEDMTFSTWTPPPGVHSQTLSRFFDKVQDLGRDYKPGLANNTIQSILQALDELLEAPGDLETLPRLQQHCVASHLLDGLEDVLRGLSKNLSNGLLNFSYPAGTELSLEVQKQVDRSVTLRQNQAVMQLDWNQAQKSGDPGPSVVGLVSIPGMGKLLAEAPLVLEPEKQMLLHETHQGLLQDGSPILLSDVISAFLSNNDTQNLSSPVTFTFSHRSVIPRQKVLCVFWEHGQNGCGHWATTGCSTIGTRDTSTICRCTHLSSFAVLMAHYDVQEEDPVLTVITYMGLSVSLLCLLLAALTFLLCKAIQNTSTSLHLQLSLCLFLAHLLFLVAIDQTGHKVLCSIIAGTLHYLYLATLTWMLLEALYLFLTARNLTVVNYSSINRFMKKLMFPVGYGVPAVTVAISAASRPHLYGTPSRCWLQPEKGFIWGFLGPVCAIFSVNLVLFLVTLWILKNRLSSLNSEVSTLRNTRMLAFKATAQLFILGCTWCLGILQVGPAARVMAYLFTIINSLQGVFIFLVYCLLSQQVREQYGKWSKGIRKLKTESEMHTLSSSAKADTSKPSTVN [ADGRE2] |  |  | plasma membrane surface immunostaining intensity (GPCR class: B): 6310 ± 78 |
| MGHNGSWISPNASEPHNASGAEAAGVNRSALGEFGEAQLYRQFTTTVQVVIFIGSLLGNFMVLWSTCRTTVFKSVTNRFIKNLACSGICASLVCVPFDIILSTSPHCCWWIYTMLFCKVVKFLHKVFCSVTILSFPAIALDRYYSVLYPLERKISDAKSRELVMYIWAHAVVASVPVFAVTNVADIYATSTCTEVWSNSLGHLVYVLVYNITTVIVPVVVVFLFLILIRRALSASQKKKVIIAALRTPQNTISIPYASQREAELHATLLSMVMVFILCSVPYATLVVYQTVLNVPDTSVFLLLTAVWLPKVSLLANPVLFLTVNKSVRKCLIGTLVQLHHRYSRRNVVSTGSGMAEASLEPSIRSGSQLLEMFHIGQQQIFKPTEDEEESEAKYIGSADFQAKEIFSTCLEGEQGPQFAPSAPPLSTVDSVSQVAPAAPVEPETFPDKYSLQFGFGPFELPPQWLSETRNSKKRLLPPLGNTPEELIQTKVPKVGRVERKMSRNNKVSIFPKVDS [GPR176] | 6400 ± 100 |  |  |
